PMC10786891, “Massively parallel profiling of RNA-targeting CRISPR-Cas13d”

T1: EsCas13d, nuclease-dead (Eubacterium siraeum, UniProt B0MS50, R295A;H300A;R849A;H854A)
T1 sequence: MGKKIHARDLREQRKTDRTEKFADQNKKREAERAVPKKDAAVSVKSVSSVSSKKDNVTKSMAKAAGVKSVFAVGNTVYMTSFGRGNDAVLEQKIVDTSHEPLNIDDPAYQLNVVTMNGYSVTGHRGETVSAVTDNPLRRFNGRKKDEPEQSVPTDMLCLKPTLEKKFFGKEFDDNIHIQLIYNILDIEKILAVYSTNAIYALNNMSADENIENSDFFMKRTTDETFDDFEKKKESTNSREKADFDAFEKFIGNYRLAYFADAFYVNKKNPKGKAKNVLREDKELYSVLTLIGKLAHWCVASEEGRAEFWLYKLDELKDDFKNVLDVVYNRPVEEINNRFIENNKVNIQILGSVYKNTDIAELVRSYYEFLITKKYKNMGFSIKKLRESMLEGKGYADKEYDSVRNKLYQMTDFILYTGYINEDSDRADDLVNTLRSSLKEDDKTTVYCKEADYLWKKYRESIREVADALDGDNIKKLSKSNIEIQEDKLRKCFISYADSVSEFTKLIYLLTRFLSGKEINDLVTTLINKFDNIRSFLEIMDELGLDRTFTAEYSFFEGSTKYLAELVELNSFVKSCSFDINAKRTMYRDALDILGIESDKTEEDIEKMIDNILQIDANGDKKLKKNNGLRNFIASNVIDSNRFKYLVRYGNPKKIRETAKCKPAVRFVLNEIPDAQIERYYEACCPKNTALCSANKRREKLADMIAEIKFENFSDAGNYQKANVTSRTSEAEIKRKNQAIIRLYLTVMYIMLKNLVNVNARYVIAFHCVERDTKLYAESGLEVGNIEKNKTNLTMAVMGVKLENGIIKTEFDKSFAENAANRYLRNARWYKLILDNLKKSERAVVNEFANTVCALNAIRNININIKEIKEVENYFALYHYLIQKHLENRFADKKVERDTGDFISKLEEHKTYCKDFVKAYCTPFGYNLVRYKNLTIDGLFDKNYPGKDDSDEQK

B1: target 1 insA 3' of 21,insU 3' of 7 (mixed)
RNA 1: CACCCGUGCAAAAAUGCAGGGGUCUAAAACUGAGCGGAUAACCUCUCUAUGG
RNA 2: GGGAAUGGAUCCACAUCUACGAAUUCGUACCAAUAGAGAGGUUAUCUCGCUCACCGAGAUCGGAAGAGCACACGU
B2: target 1 insC 3' of 15,insC 3' of 14 (mixed)
RNA 1: CACCCGUGCAAAAAUGCAGGGGUCUAAAACUGAGCGGAUAACCUCUCUAUGG
RNA 2: GGGAAUGGAUCCACAUCUACGAAUUCGUACCAUAGAGCACGGUUAUCCGCUCACCGAGAUCGGAAGAGCACACGU
B3: target 1 A1C,C7G (mixed)
RNA 1: CACCCGUGCAAAAAUGCAGGGGUCUAAAACUGAGCGGAUAACCUCUCUAUGG
RNA 2: GGGAAUGGAUCCACAUCUACGAAUUCGUACCAUAGAGAGGUUAUGCGCUCCCCGAGAUCGGAAGAGCACACGU
B4: target 1 insA 3' of 19,insA 3' of 13 (mixed)
RNA 1: CACCCGUGCAAAAAUGCAGGGGUCUAAAACUGAGCGGAUAACCUCUCUAUGG
RNA 2: GGGAAUGGAUCCACAUCUACGAAUUCGUACCAUAAGAGAGAGUUAUCCGCUCACCGAGAUCGGAAGAGCACACGU
B5: target 1 insA 3' of 11,insG 3' of 3 (mixed)
RNA 1: CACCCGUGCAAAAAUGCAGGGGUCUAAAACUGAGCGGAUAACCUCUCUAUGG
RNA 2: GGGAAUGGAUCCACAUCUACGAAUUCGUACCAUAGAGAGGUAUAUCCGCUGCACCGAGAUCGGAAGAGCACACGU
B6: target 1 insU 3' of 13,insA 3' of 3 (mixed)
RNA 1: CACCCGUGCAAAAAUGCAGGGGUCUAAAACUGAGCGGAUAACCUCUCUAUGG
RNA 2: GGGAAUGGAUCCACAUCUACGAAUUCGUACCAUAGAGAGUGUUAUCCGCUACACCGAGAUCGGAAGAGCACACGU
B7: target 1 insA 3' of 22,insA 3' of 17 (mixed)
RNA 1: CACCCGUGCAAAAAUGCAGGGGUCUAAAACUGAGCGGAUAACCUCUCUAUGG
RNA 2: GGGAAUGGAUCCACAUCUACGAAUUCGUACACAUAGAAGAGGUUAUCCGCUCACCGAGAUCGGAAGAGCACACGU
B8: target 1 insG 3' of 4,insA 3' of 4 (mixed)
RNA 1: CACCCGUGCAAAAAUGCAGGGGUCUAAAACUGAGCGGAUAACCUCUCUAUGG
RNA 2: GGGAAUGGAUCCACAUCUACGAAUUCGUACCAUAGAGAGGUUAUCCGCGAUCACCGAGAUCGGAAGAGCACACGU
B9: target 1 insU 3' of 13,insG 3' of 8 (mixed)
RNA 1: CACCCGUGCAAAAAUGCAGGGGUCUAAAACUGAGCGGAUAACCUCUCUAUGG
RNA 2: GGGAAUGGAUCCACAUCUACGAAUUCGUACCAUAGAGAGUGUUAUGCCGCUCACCGAGAUCGGAAGAGCACACGU
B10: target 1 insU 3' of 6 (mixed)
RNA 1: CACCCGUGCAAAAAUGCAGGGGUCUAAAACUGAGCGGAUAACCUCUCUAUGG
RNA 2: GGGAAUGGAUCCACAUCUACGAAUUCGUACCAUAGAGAGGUUAUCCUGCUCACCGAGAUCGGAAGAGCACACGU
B11: target 1 insC 3' of 18,insA 3' of 17 (mixed)
RNA 1: CACCCGUGCAAAAAUGCAGGGGUCUAAAACUGAGCGGAUAACCUCUCUAUGG
RNA 2: GGGAAUGGAUCCACAUCUACGAAUUCGUACCAUACGAAGAGGUUAUCCGCUCACCGAGAUCGGAAGAGCACACGU
B12: target 1 insG 3' of 19,insU 3' of 9 (mixed)
RNA 1: CACCCGUGCAAAAAUGCAGGGGUCUAAAACUGAGCGGAUAACCUCUCUAUGG
RNA 2: GGGAAUGGAUCCACAUCUACGAAUUCGUACCAUGAGAGAGGUUAUUCCGCUCACCGAGAUCGGAAGAGCACACGU
B13: target 1 C2A,C4U (mixed)
RNA 1: CACCCGUGCAAAAAUGCAGGGGUCUAAAACUGAGCGGAUAACCUCUCUAUGG
RNA 2: GGGAAUGGAUCCACAUCUACGAAUUCGUACCAUAGAGAGGUUAUCCGUUAACCGAGAUCGGAAGAGCACACGU
B14: target 1 insG 3' of 19 (mixed)
RNA 1: CACCCGUGCAAAAAUGCAGGGGUCUAAAACUGAGCGGAUAACCUCUCUAUGG
RNA 2: GGGAAUGGAUCCACAUCUACGAAUUCGUACCAUGAGAGAGGUUAUCCGCUCACCGAGAUCGGAAGAGCACACGU
B15: target 1 insU 3' of 22,insA 3' of 6 (mixed)
RNA 1: CACCCGUGCAAAAAUGCAGGGGUCUAAAACUGAGCGGAUAACCUCUCUAUGG
RNA 2: GGGAAUGGAUCCACAUCUACGAAUUCGUACUCAUAGAGAGGUUAUCCAGCUCACCGAGAUCGGAAGAGCACACGU
B16: target 1 U3A,G12C (mixed)
RNA 1: CACCCGUGCAAAAAUGCAGGGGUCUAAAACUGAGCGGAUAACCUCUCUAUGG
RNA 2: GGGAAUGGAUCCACAUCUACGAAUUCGUACCAUAGAGAGCUUAUCCGCACACCGAGAUCGGAAGAGCACACGU
B17: target 1 insU 3' of 5,insG 3' of 3 (mixed)
RNA 1: CACCCGUGCAAAAAUGCAGGGGUCUAAAACUGAGCGGAUAACCUCUCUAUGG
RNA 2: GGGAAUGGAUCCACAUCUACGAAUUCGUACCAUAGAGAGGUUAUCCGUCUGCACCGAGAUCGGAAGAGCACACGU
B18: target 1 insU 3' of 22,insG 3' of 9 (mixed)
RNA 1: CACCCGUGCAAAAAUGCAGGGGUCUAAAACUGAGCGGAUAACCUCUCUAUGG
RNA 2: GGGAAUGGAUCCACAUCUACGAAUUCGUACUCAUAGAGAGGUUAGUCCGCUCACCGAGAUCGGAAGAGCACACGU
B19: target 1 C7G (mixed)
RNA 1: CACCCGUGCAAAAAUGCAGGGGUCUAAAACUGAGCGGAUAACCUCUCUAUGG
RNA 2: GGGAAUGGAUCCACAUCUACGAAUUCGUACCAUAGAGAGGUUAUGCGCUCACCGAGAUCGGAAGAGCACACGU
B20: target 1 C7A,A20U (mixed)
RNA 1: CACCCGUGCAAAAAUGCAGGGGUCUAAAACUGAGCGGAUAACCUCUCUAUGG
RNA 2: GGGAAUGGAUCCACAUCUACGAAUUCGUACCUUAGAGAGGUUAUACGCUCACCGAGAUCGGAAGAGCACACGU
B21: target 1 insA 3' of 6,insG 3' of 4 (mixed)
RNA 1: CACCCGUGCAAAAAUGCAGGGGUCUAAAACUGAGCGGAUAACCUCUCUAUGG
RNA 2: GGGAAUGGAUCCACAUCUACGAAUUCGUACCAUAGAGAGGUUAUCCAGCGUCACCGAGAUCGGAAGAGCACACGU
B22: target 1 C21A,C22A (mixed)
RNA 1: CACCCGUGCAAAAAUGCAGGGGUCUAAAACUGAGCGGAUAACCUCUCUAUGG
RNA 2: GGGAAUGGAUCCACAUCUACGAAUUCGUAAAAUAGAGAGGUUAUCCGCUCACCGAGAUCGGAAGAGCACACGU
B23: target 1 insU 3' of 15,insG 3' of 3 (mixed)
RNA 1: CACCCGUGCAAAAAUGCAGGGGUCUAAAACUGAGCGGAUAACCUCUCUAUGG
RNA 2: GGGAAUGGAUCCACAUCUACGAAUUCGUACCAUAGAGUAGGUUAUCCGCUGCACCGAGAUCGGAAGAGCACACGU
B24: target 1 A1G,C7G (mixed)
RNA 1: CACCCGUGCAAAAAUGCAGGGGUCUAAAACUGAGCGGAUAACCUCUCUAUGG
RNA 2: GGGAAUGGAUCCACAUCUACGAAUUCGUACCAUAGAGAGGUUAUGCGCUCGCCGAGAUCGGAAGAGCACACGU
B25: target 1 insA 3' of 15,insC 3' of 14 (mixed)
RNA 1: CACCCGUGCAAAAAUGCAGGGGUCUAAAACUGAGCGGAUAACCUCUCUAUGG
RNA 2: GGGAAUGGAUCCACAUCUACGAAUUCGUACCAUAGAGAACGGUUAUCCGCUCACCGAGAUCGGAAGAGCACACGU
B26: target 1 G12U,A16C (mixed)
RNA 1: CACCCGUGCAAAAAUGCAGGGGUCUAAAACUGAGCGGAUAACCUCUCUAUGG
RNA 2: GGGAAUGGAUCCACAUCUACGAAUUCGUACCAUAGCGAGUUUAUCCGCUCACCGAGAUCGGAAGAGCACACGU
B27: target 1 A9G,G15A (mixed)
RNA 1: CACCCGUGCAAAAAUGCAGGGGUCUAAAACUGAGCGGAUAACCUCUCUAUGG
RNA 2: GGGAAUGGAUCCACAUCUACGAAUUCGUACCAUAGAAAGGUUGUCCGCUCACCGAGAUCGGAAGAGCACACGU
B28: target 1 insA 3' of 22,insU 3' of 9 (mixed)
RNA 1: CACCCGUGCAAAAAUGCAGGGGUCUAAAACUGAGCGGAUAACCUCUCUAUGG
RNA 2: GGGAAUGGAUCCACAUCUACGAAUUCGUACACAUAGAGAGGUUAUUCCGCUCACCGAGAUCGGAAGAGCACACGU

These binders were tested against T1, EsCas13d, nuclease-dead (assay: crRNA (strand 1, pre-loaded); Mg2+; 40 mM Tris-HCl pH 7.5, 150 mM NaCl, 6 mM MgCl2, 1 mM DTT, 0.1% Tween-20, 0.2 mg/ml BSA; 25 C; 10 min per concentration, then washed). Conditions: tags: His6-TwinStrep-SUMO cleaved; N-terminal SNAP kept (SNAP-Surface 488); label: 3' end held by stalled T7 RNA polymerase.

Going from B1 to B2, the Kd falls from 40.7 ± 3.1 nM to 12 ± 1 nM (3.4-fold).

First: B3
Second: B4
The Kd of the first is 2-fold lower: 8.8 ± 0.7 nM for the first, 17.9 ± 2 nM for the second.

Compared with B5, B6 is 2-fold higher in Kd: 12.1 ± 0.6 nM for the first, 24 ± 3.1 nM for the second. The first binds more tightly here.

Compared with B7, B8 is 5.9-fold lower in Kd: 27.5 ± 2 nM for the first, 4.63 ± 0.25 nM for the second. The second binds more tightly here.

B9 and B10 are within error of each other in Kd: 11.9 ± 1.3 nM for the first, 12.8 ± 0.7 nM for the second.

Going from B11 to B12, the Kd rises from 50 ± 6 nM to 92 ± 34 nM (1.8-fold). The first binds more tightly here.

B13 and B14 are within 1.5-fold of each other in Kd: 33.5 ± 3.5 nM for the first, 50 ± 4 nM for the second.

First: B15
Second: B16
The Kd of the first is 6.5-fold higher: 55 ± 16 nM for the first, 8.5 ± 0.4 nM for the second.

Going from B17 to B18, the Kd rises from 12.9 ± 0.9 nM to 76 ± 12 nM (5.9-fold). The first binds more tightly here.

First: B19
Second: B20
The Kd of the first is 5.1-fold lower: 8.8 ± 0.5 nM for the first, 45 ± 5 nM for the second. The first binds more tightly here.

Compared with B21, B22 is 2.8-fold higher in Kd: 12.7 ± 0.6 nM for the first, 36 ± 5 nM for the second. The first binds more tightly here.

B23 and B24 are within 1.5-fold of each other in Kd: 6.99 ± 0.32 nM for the first, 9.2 ± 0.9 nM for the second.

First: B25
Second: B26
The Kd of the first is 5.1-fold lower: 14.8 ± 0.7 nM for the first, 76 ± 14 nM for the second.

First: B27
Second: B28
The Kd of the first is 1.9-fold lower: 11.6 ± 0.7 nM for the first, 21.6 ± 1.5 nM for the second.
